Laboratory results as given in publication PMC7060403 (Journal of molecular biology, 2019).

Molecular target: T1, RavP-C (C-terminal region of the rabies virus phosphoprotein, residues 140-297) (rabies virus, UniProt P22363 140-297)
T1 sequence: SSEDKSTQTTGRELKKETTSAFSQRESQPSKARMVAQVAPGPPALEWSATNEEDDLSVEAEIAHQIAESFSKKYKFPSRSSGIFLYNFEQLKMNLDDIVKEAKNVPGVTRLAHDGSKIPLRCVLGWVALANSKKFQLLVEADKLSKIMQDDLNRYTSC
Assay: ITC

B1: LC8 from Drosophila melanogaster (natural protein, UniProt Q24117 1-89, looked up)
chain: MSDRKAVIKNADMSEEMQQDAVDCATQALEKYNIEKDIAAYIKKEFDKKYNPTWHCIVGRNFGSYVTHETRHFIYFYLGQVAILLFKSG
B1 gave a Kd of 4.19 µM.
